PMC10632514 (Nature Communications, 2023)

T1: MPER peptide (wild type, for epitope mapping) (HIV-1 HXB2)
T1 construct: also called wild-type MPER (WT); source: synthetic peptide
T1 chain: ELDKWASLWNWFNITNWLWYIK


Biological target: T1, MPER peptide (wild type, for epitope …)
Assay: SPR
Conditions: both partners purified

Row | Binder | binding result
1 | rmAb 235 IgG1 (antibody, V domains shown) VH: QVQLQQSGTDLVRPGTSVKVSCKASGYAFTTYFIEWVKQRPGQGLEWIGVINPGSGIPNYNEMFKGKATLTADKSSSTAYLHLSSLTSDDSAVYFCARAPYYYGSSYYYFDVWGAGTTVTVSS VL: DIVMSQSPSSLAVSVGEKVTMSCKSSQSLLYSSNQKNYLAWYQQKPGQSPKLLIYWASTRDSGVPDRFTGSGSGTDFTLTISSVKAEDLAVYCCQQYYNYPFTFGAGTKLEIK | binds
2 | rmAb 460 IgG1 (antibody, V domains shown) VH: EVQLQQSGAELVKPGASVKLSCTASGFNIKDTYMHWVKQRPEQGLEWIGRIDPANGNTKYDPKFQGKATITADTSSNTAYLQLSSLTSEDTAVYFCTRSRGYFGNYYFDYWGQGTTLTVSS VL: QIVLTQSPAVMSASPGERVTMTCSASSSVSYMYWYQQKPRSSPKPWIYLTSNLASGVPARFSGSGSGTSYSLTISSMEAEDAATYYCQQWSSIPLTFGAGTKLELK | binds
